The record followed here is US20240350630A1.

The target of assay [1] is recombinant human BCMA (Acro Biosystems) (human) (UniProt Q02223). The assay can be described thus: SPR, scFv-Fc captured by anti-human IgG Fc on a CM5 chip, BCMA as analyte, global fit.
The target is the same in assay [2]. Kind of assay: SPR: scFv-Fc captured on an anti-human IgG Fc CM5 chip (sheet: ligand 20nM), recombinant human BCMA as analyte, 1:1 Binding model, 25 C.
Assay [3] concerns the target rBCMA conjugated with AF647 (UniProt Q02223). Kind of assay: flow cytometry of primary T cells transduced with the CAR, stained with labelled recombinant BCMA (sheet: rBCMA-APC, APC-A; text: BCMA-AF647 at 1 ug/ml); untransduced T cells (UT) give 0.61 in the same gate.

B1: 7A8.11 scFv-Fc (Fc fusion, not shown: a dimerising Fc or GST; small tags and cut ends)
scFv: EVQLVESGGGLVQPGGSLRLSCEASGFTFSSFWMNWVRQAPGKGLEWVANIKEDGSEKYYVDSVKGRFTISRDNAKNSLYLQMNSLRVEDTAVYYCARALDYYGMDVWGQGTTVTVSSGGGGSGGGGSGGGGSGGGGSYIVMTQTPLSLPVTPGEPASISCRSSQSLLDSDDGNTYLDWYLQKPGQSPQLLIYTLSYRASGVPDRFSGSGSGTDFTLKISRVEAEDVGVYYCMQRIEFPSYTFGQGTKLEIK
With B1, the equilibrium dissociation constant (Kd) in assay [1] was determined as 0.44 nM. In assay [2], the equilibrium dissociation constant (Kd) came to 0.355 nM, the koff was 0.00486 s⁻¹ and the kon stood at 1.37e+07 M⁻¹ s⁻¹.

B2: L15 scFv-Fc (Fc fusion, not shown: a dimerising Fc or GST; small tags and cut ends)
scFv: EVQLVESGGGLVKPGGSLRLSCAASGFTFSSYSMNWVRQAPGKGLEWVSSISGQSNYIYYADSVKGRFTISRDNAKNSLYLQMNSLRAEDTAVYYCARGGNYFVEYFQYWGQGTLVTVSSGSGGGGSGGGGSGGGGSGGGGSEIVLTQSPGTLSLSPGERATLSCRASQYISSNNLAWYQQKPGQAPRLLIYGASNRATGIPDRFSGSGSGTDFTLTISRLEPEDFAVYYCQQYADSPITFGQGTKLEIK
As to B2, in assay [1], the Kd is 0.37 nM. Moreover, in assay [2], the dissociation constant (Kd) stood at 0.371 nM, the off-rate (koff) is 0.000673 s⁻¹ and the kon worked out at 1.81e+06 M⁻¹ s⁻¹.

B3: 15B2 (protein, part only; not given: hinge, transmembrane and signalling domains, part only)
CAR chain, part: EVQLVESGGGLVKPGGSLRLSCAASGFTFRSYSMNWVRQAPGKGLEWVSSISGSSNYIYYADSVKGRFTISRDNAKNSLYLQMNSLRAEDTAVYYCARGGNYYVEYFQYWGQGTLVTVSSGGGGSGGGGSGGGGSGGGGSEIVLTQSPGTLSLSPGERATLSCRASQYISSNYLAWYQQKPGQAPRLLIYGASNRATGIPDRFSGSGSGTDFTLTISRLEPEDFAVYYCQQYGSSPITFGQGTKLEIK
Turning to B3, the % BCMA CAR+ cells in assay [3] is 99.6%.
